The values that follow come from PMC6256345 (2018).

Non-standard residues stand in square brackets, D forms with d. *: point of attachment. Pyrrolidinyl(2S-CHPh2) = c1ccc(C(c2ccccc2)[C@@H]2CCCN2*)cc1; pS = N[C@@H](COP(=O)(O)O)C(=O)O

For assay [1], the target named is T1, modified Tau peptide 3.2d pS214 epitope (Homo sapiens, UniProt P10636, phosphoS214, N-acetyl, C-terminal D-Ala-(S)-2-benzhydrylpyrrolidine). Briefly: ITC. For orientation: In ITC the heat of successive injections is recorded.
Assay [2] has as its target T2, modified Tau peptide 3.2b pS214 epitope (Homo sapiens, UniProt P10636, phosphoS214, N-acetyl, C-terminal Gly-(S)-2-benzhydrylpyrrolidine). In words: ITC.
The target of assay [3] is T3, modified Tau peptide 4.2f-I pS214 epitope (Homo sapiens, UniProt P10636, also: substituent position not given here).
T3 chain: Ac-SRTP[pS]LPG-{methoxy‑substituted benzhydrylpyrrolidine}
In words: ITC.

Assay [4] deals with T4, modified Tau peptide 3.2a pS214 epitope (Homo sapiens, UniProt P10636, phosphoS214, N-acetyl, C-terminal L-Thr-(S)-2-benzhydrylpyrrolidine). In words: ITC.
Assay [5] concerns the target T5, modified Tau peptide 3.2c pS214 epitope (Homo sapiens, UniProt P10636, phosphoS214, N-acetyl, C-terminal L-Ala-(S)-2-benzhydrylpyrrolidine). In words: ITC.
Assay [6] addresses T6, modified Tau peptide 4.2d-II pS214 epitope (Homo sapiens, UniProt P10636, also: regioisomer, substituent position not given here).
T6 chain: Ac-SRTP[pS]LPG-{(methoxyethoxy)‑substituted benzhydrylpyrrolidine}
Briefly: ITC.

Assay [7] addresses T7, modified Tau peptide 3.2f pS214 epitope (Homo sapiens, UniProt P10636, SMILES …).
T7 chain: Ac-SRTP[pS]LP[dV]-{Pyrrolidinyl(2S-CHPh2)}
Briefly: ITC.

Assay [8] has as its target T1, modified Tau peptide 3.2d pS214 epitope. Briefly: FP competition.
The target of assay [9] is T2, modified Tau peptide 3.2b pS214 epitope. Briefly: FP competition.
Assay [10] has as its target T4, modified Tau peptide 3.2a pS214 epitope. In words: FP competition.
Assay [11] has as its target T5, modified Tau peptide 3.2c pS214 epitope. Briefly: FP competition.
Assay [12] concerns the target T7, modified Tau peptide 3.2f pS214 epitope. Briefly: FP competition.
Assay [13] concerns the target T8, modified Tau peptide 3.2e pS214 epitope (Homo sapiens, UniProt P10636, SMILES …).
T8 chain: Ac-SRTP[pS]LPV-{Pyrrolidinyl(2S-CHPh2)}
Briefly: FP competition.

B1: 14-3-3ζ (protein)
chain: MDKNELVQKAKLAEQAERYDDMAACMKSVTEQGAELSNEERNLLSVAYKNVVGARRSSWRVVSSIEQKTEGAEKKQQMAREYREKIETELRDICNDVLSLLEKFLIPNASQAESKVFYLKMKGDYYRYLAEVAAGDDKKGIVDQSQQAYQEAFEISKKEMQPTHPIRLGLALNFSVFYYEILNSPEKACSLAKTAFDEAIAELDTLSEESYKDSTLIMQLLRDNLTLWTSDTQGDEAEAGEGGEN
For orientation: Kd means a measure of binding affinity in units of concentration. As usually defined, the IC50 is the midpoint of a concentration-inhibition curve. Regarding B1, the dissociation constant Kd in assay [1] came out at 3 µM; in [2], 5.6 µM; in assay [3], 4.7 µM; in [4], 5.4 µM; in [5], 3.3 µM; in [6] it was 20.6 µM. Further, the Kd in assay [7] is 3.4 µM. The IC50 in assay [8] amounted to 6.2 µM; in [9], 5.9 µM; in assay [10], 8.1 µM; in assay [11], 5.3 µM; in assay [12] it was 7.6 µM; in assay [13], 6.2 µM.
